Test results taken from the nanobody polyreactivity screen of Harvey et al. (2022).

assay: yeast display, Sf9 membrane polyspecificity reagent, FACS + sequencing; frameworks hold sequencing errors
How it was run: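 Galactose induction of a Saccharomyces cerevisiae BJ5465 synthetic nanobody display library ran 36–48 hours. The cells were then stained for 1 hour at 4 °C with 10% biotinylated, detergent-solubilized Sf9 membrane reagent, pulled down on streptavidin microbeads and FACS-sorted into low and high (top ~1%) gates on expression and reagent-binding fluorescence. Labels for polyreactivity follow the gate of origin.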

Row | Sequence | polyreactivity (PSR sort gate)
1 | QDQLVESGGGLVQAGGSLRLSCAASGSIFSKNTMGWYRQAPGKERELVAAISGSGVSTYYADSVKGRFTISRDNAKNTVYLQMNSLKPEDTAVYYCAAGPRFRYYSGWYDYWGQGTQVTVSS | high polyreactivity
2 | QDQLVESGGGLVQAGGSLRLSCAASGSIFSNYAMGWYRQAPGKERELVATITSAGSTYYADSVKGRFTISRDNAKNTVYLQLNSLKPEDTAVYYCAALYLGSYDYYDDMDYWGQGTQVTVSS | low polyreactivity
3 | QDQLVESGGGLVQAGGSLRLSCAASGSIFSSNAMGWYRQAPGKERELVAAINKSGGRTYYADSVKGRFTISRDNAKNTVYLQMNSLKPEDTAVYYCNKYGLASGLDYWGQGTQVTVSS | high polyreactivity
4 | QDQLVESGGGLVQAGGSLRLSCAASGSIFTSNAMGWYRQAPGKERELVAVITGSTGRTHYADSVKGRFTISRDNAKNTVYLQMNSLKPEDTAVYYCAAGLTFVTNFDYWGQGTQVTVSS | low polyreactivity
5 | QDQLVESGGGLVQAGGSLRLSCAASGSIFYWYAMGWYRQAPGKERELVAAISKSGGSTYYADSVKGRFTISRDTAKNTVYLQMNSLKPEDTAVYYCAARYLYQGYRFDYWGQGTQVTVSS | high polyreactivity
6 | QDQLVESGGGLVQAGGSLRLSCAASGSNFVINAMGWYRQAPGKERELVAAISYSGTGTYYADSVKGRFTISRDNAKNTVYLQMNSLKPEDTAVYYCAGDYYYRYRIYDYWGQGTQVTVSS | low polyreactivity
7 | QDQLVESGGGLVQAGGSLRLSCAASGSTFNAYAMGWYRQAPGKERELVADISISGGTYYADSVKGRFTISRDNAKNTVYLQMNSLKPEDTAVYYCAAKPSWHGVYYWGQGTQVTVSS | low polyreactivity
8 | QDQLVESGGGLVQAGGSLRLSCAASGSTFRWYAMGWYRQAPGKERELVAAIRRIGSRTYADSVKGRFTISRDNAKNTVYLQMNSLKPEDTAVYYCATRYKYTGYDYWGQGTQVTVTS | high polyreactivity
9 | QDQLVESGGGLVQAGGSLRLSCAASGSTFSNYAMGWYRQAPGKERELVASISQSGGSTYYADSVKGRFTISRDNAKNTVYLQMNSLKPEDTAVYYCAADVAQVGYQVGVSEIYPGYEYWGQGTQVTVSS | low polyreactivity
10 | QDQLVESGGGLVQAGGSLRLSCAASGSTFSVYAMGWYRRAPGKERELVATIRGRGGSTSYADSVKGRFTISRDNAKNTVYLQMNSLKPEDTAVYYCAARVVRDWASKRIILALSNYVYWGQGTHVTVSS | high polyreactivity
11 | QDQLVESGGGLVQAGGSLRLSCAASGSTFTTNVMGWYRQAPGKERELVAAISWSSGSTYYADSVKGRFTISRDNAKNTDYLQMNSLKPEDTAVYYCAARLVIFYPYSRYYYWGQGTQVTVSS | high polyreactivity
12 | QDQLVESGGGLVQAGGSLRLSCAASGSTFTYNTKGWYRQAPGKERELVAAITTSGGNTYYADSVKGRFTISRDNAKNTVYLQMNSLKPVDTAVYYCAAGYSWAEGDYWGQGTQVTVSS | low polyreactivity
13 | QDQLVESGGGLVQAGGSLRLSCAASGSTFVENAMGWYRQAPGKERELVAAISSSGDSTFYADSVKGRFTISRDNAKNTVYLQMNSLKPEDTAVYYCNTPLLKRTTRGRERNYWGQGTQVTVSS | low polyreactivity
14 | QDQLVESGGGLVQAGGSLRLSCAASGSTFVKYAMGWYRQAPGKERELVAAITKGGGSTYYADSVKGRFTISRDNAKNTVYLQMNSLKPEDTAVYYCNTSPHYRYGMDYWGQGTQVTVSS | high polyreactivity
15 | QDQLVESGGGLVQAGGSLRLSCAASGSTFWANAMGWYRQAPGKEWELDARITYSGGSTYYADSVKGRFTISRDYAKNTVYLQMNSLKPEDTAVYYCAAEHYLCYDYWGQGTQVTVSS | low polyreactivity
16 | QDQLVESGGGLVQAGGSLRLSCAASGSTFYNYAMAWYRQAPGKEREFVAAISSGGGITYYADSVKGRFTISRDNAKNTVFLQMISLIPEDTAVYYCNAKMISGISTADSRSRIYDYWGHGTQVTVSS | high polyreactivity
17 | QDQLVESGGGLVQAGGSLRLSCAASGSTLAGYAMGWYRLAPGKVRELVAAIDWTGGSTTYADSVKGRFTISRDNAKNTVYLQMNSLKPEDTAVYYCNVDLGVNGDYWGQGTQVTVSS | low polyreactivity
18 | QDQLVESGGGLVQAGGSLRLSCAASGSTLDGNAMGWYRQAPGKERELVAGIDTGGSTYYADSVKGRFTISRDNAKNTVYLQMNSLKPEDTAVYYCAATDREDYDYWGQGTQVTVSS | low polyreactivity
19 | QDQLVESGGGLVQAGGSLRLSCAASGSTLEYKAIGRYRQAPGQERELVAVINRSDGSTYYADSVKGRFTISRDNAKNTVYLQMNSLKPEDTEVYYCADDRHQVSGISTEDYWGQGTQVTVSS | low polyreactivity
20 | QDQLVESGGGLVQAGGSLRLSCAASGSTLFYAMGWYRQAPGKERELVAAISWSGGSTRYADSVKGRFTISRDNAKNTVYLQMNSLKPEDTAVYYCNRDPDTWGYQPDWYYGAYDYWGQGTQVTVSS | low polyreactivity
21 | QDQLVESGGGLVQAGGSLRLSCAASGSTLTRNAMGWYRQAPGKERELVAAITSGGRTKYADSVKGRFTISRDNAKNTVYLQMNSLKPEDTAVYYCAKGGPPGQRGYDYWGQGTQVTVSS | high polyreactivity
22 | QDQLVESGGGLVQAGGSLRLSCAASGSTRIYAMGWYRRAPRKEMELVAAISWTGGRTYYADSVKGRFTISRDNAKIIVYLQMNSLKPEYTAVYYCAAQYFTFYWKLDYWGQGTQVTVSS | high polyreactivity

Row | Sequence | polyreactivity (PSR sort gate)
23 | QDQLVESGGGLVQAGGSLRLSCAASGSTSRTYAMGWYRQAPGKERELVAAINSGGTTYYADSVKGRFTISRDNAKNTVYLQMNSLKPEDTAVYYCARRDFWWSLRIFGYWGQGTQVTVSS | high polyreactivity
24 | QDQLVESGGGLVQAGGSLRLSCAASGSTVSYYTMGWYRQAPGKERELVAAINGSGGSTYYADSVKGRFTISRDNAKNNVYLQMNSMKPEDTAVYYCAADIKRVLDIPMYYWGQGTQVTVSS | low polyreactivity
25 | QDQLVESGGGLVQAGGSLRLSCAASGYIFGIYAMGWYRQAPGKERELVAAISSDSTYYADSVKGRFTISRDNAKNTVYLQMNRQKPEDTAVYYCAAYWFNQDYEFEYWGHGTQVTVSS | high polyreactivity
26 | QDQLVESGGGLVQAGGSLRLSCAASGYIFRIYAMGWYRQAPGKERELVATITNGGSTHYADSVKGRFTISRDNAKNTVYLQMNSLKPEDTAVYYCAADLLYSEYDYWGQGTQVTVSS | high polyreactivity
27 | QDQLVESGGGLVQAGGSLRLSCAASGYTFRYYAMGWYRQAPGKERELVARITGRAGSTYYADSVKGRFTISRDNAKNTVYLQMNSLKPEDTAVYYCAASIREGFYWGQGTQVTVSS | high polyreactivity
28 | QDQLVESGGGLVQAGGSLRLSCAASVFTFRYYAMGWYRQAPGKEREFVATISWSGGSTYYADSVKGRFTISRDNAKNTVYLQMNSLKPEDTAVYYCAAGRVGTTTLEFYYCGQGTQVTVSS | high polyreactivity
29 | QDQLVESGGGLVQAGGSLRLSCAASVRTCNSYAMGWYRQAPGKERELVADITSSGGSTYYADSVKGRVTISRDNAKNTVYVQMNSLKPEDTAVYYCAADGYTRLPTYLRVTHRSLDYCGQGTQVTVSS | low polyreactivity
30 | QDQLVESGGGLVQAGGSLRLSCAASVSIFGVNVMGWYRQAPGKERELVAAITSIGGRTYYADSVKGRFTISRDNAKITVYLQMNSLKPEETAVYYCNADYTGAEYDYWGQGTQVTVSS | low polyreactivity
31 | QDQLVESGGGLVQAGGSLRLSCAASYYAMGWYRQAPGKERELVASISSGGSTNYADSVKGRFTISRDNAKNTVYLQMNSLKPDDTAVYYCAAQYYATYGYWGQGTQVTVSS | low polyreactivity
32 | QDQLVESGGGLVQAGGSLRLSCADSGYTFTSNDMGWYRQAPGKERELVAAITWSGGTTYYADSVKGRFTISRDNAKNNVYLQMNSLKPDDTAVYYCAAESTLPIIDRDDYWGQGTQVTVSS | low polyreactivity
33 | QDQLVESGGGLVQAGGSLRLSCAGCAYIFGRYAMGWYRQAPGKEMELVAAITQRGGRTYYPDSVKGRFTISRDNAKNTVYLQMNSLKPEDTAVYYCAALLYFFLYDYWGQGTQVTVSS | low polyreactivity
34 | QDQLVESGGGLVQAGGSLRLSCAGSGSILDGNAMLWYRQAPGKERELVAGISGDSGSTYYADSVKGRFTISRDNAKNTVYLQMNSLKPEDTAVDYCAVTWGARTDQWPLRVFVGHDYWGQGTQLTVSS | low polyreactivity
35 | QDQLVESGGGLVQAGGSLRLSCDASGFILETNAMGWYRQAPGKERELVASITSSGSTYYADSVKGRFTISRDNAKNTVYLQMNSLKREVTAVYYCAARRYRSRGRTYGWFRYDYWGQGTQVTVSS | high polyreactivity
36 | QDQLVESGGGLVQAGGSLRLSCDASGSIFPIYAMGWYRQAPGKERELVAAINRSGGSTYYADSVKGRFTISRDNAKNTVYLQMNSLKPEDTAVYYCKADYGYHNQLFWGYYGWSSDHWGQGTQVTVSS | low polyreactivity
37 | QDQLVESGGGLVQAGGSLRLTCAASGSTFTLYVMGWYRQAPGKARELVAAISRGDTTNYADSVKGRFTISRDNAKNTVYLQMNSLKPEDTAVYYCAATYPTFFYWSKVYERDYWGQGTQVTVSS | low polyreactivity
38 | QDQLVESGGGLVQAGGSLRLTSAASGFKFEKNAMGWYRQSPGKERQLVARISRSGGSTYYADSVKGRFTISRDNAKNTVYLQMNSLKPEDTADYYCNCLHRSDSGYYYRYDYWGQGTQVTVSS | high polyreactivity
39 | QDQLVESGGGLVQAGGSLRVSCAASGSIFAWYAMGWYRQAPGKDRELVAVITRGGSTNYADSVKGRFTISRDNAKKTVYLQMNSLKPEDTAVYYCAAGSYYSWYPFDYWGQGTQVTVSS | low polyreactivity
40 | QDQLVESGGGLVQAGGSLRVSCAASGSVFLVNAMGWYRQAPGKERELVAIDGSGGSTYADSVKGRFTISRDNAKNTVYLQMNILKPEDTAVYYCAKDQEGPLYDYWGQGTQVTVSS | low polyreactivity
41 | QDQLVESGGGLVQAGGSLSLCCAASGFTFKLYAMGWYRQAAGKVREVVAAISSSGGRTYYADSVKGRFTISRDNAKNTVYLQMNSLKPEDTAVYYCNAVRTVNDYHYDYSGQGTQVTVSS | high polyreactivity
42 | QDQLVESGGGLVQAGGSLSLSCAASGRIFRGNAMGWYRQAPGKERELVASITWRGTSTYYADSVKGRFTISRDNAKNTVYLQMNSLKPEDTAVYYCAASLYSWGQGTEVTVSS | high polyreactivity
43 | QDQLVESGGGLVQAGGTLRLSCAASGRIFKSYAMGWYRQAPGKEREVVASISYTGGSTYYADSVKGRFTISRDNAKNTVYLEMNSLNPEDTAVYYFAAKRVRSAGSYGYWGQVTQVTVSS | low polyreactivity
